One block for each binder: values may come before it.
Assays:
[1] = target: T1, hSIRP-Fc (extracellular region of human SIRPα fused to the Fc region of human IgG) (human, UniProt P78324 31-373); experiment: BIAcore equilibrium binding at 37° C, non linear curve fitting of the Langmuir isotherm; hSIRP-Fc immobilised (6525 RU), control subtracted
T1 construct: extracellular domain; also called human SIRP-Fc; dimeric hSIRP-Fc; not shown: human IgG Fc from vector pIg PLUS (R&D Systems)
Procedure: (§1) FIG. 5. Affinity and dissociation rate of soluble human CD47-CD4d3+4 binding to human SIRP-Fc. (A) Soluble monomeric hCD47-CD4d3+4 was injected at the indicated concentrations in 1 μM through flowcells immobilised hSIRP-Fc (6525 RU) (solid line), or as a negative control CTLA-4-Fc (6290 RU) (dotted line) at 37° C. (B) the difference between the response between the response at equilibrium in the hSIRP-Fc flowcell and the control flow cell is plotted against the hCD47-CD4d3+4 concentration. A kd=8.5 μM and maximal binding of 1400 RU were calculated by non linear curve fitting of the Langmuir isotherm (line) to data (circles) from A with negative control subtracted. […] (C) Soluble hCD47 (18.3 μM) was injected over immobilised hSIRP-Fc immobilised at high (6500 RU) (filled circles) and low (3000) levels (filled up triangles), and hCTLA-4-Fc (6290 RU) (filled down triangles). Values for koff=1.6 s⁻¹ for hSIRP-Fc high, 2.1 s⁻¹ hSIRP-Fc low and 7.0 s⁻¹ for hCTLA-4-Fc were calculated by exponential decay curve fitting (line) to dissociation data (symbols).
(§2) BIAcore analysis was carried out using a BIAcore™ 2000 biosensor instrument (Biacore AB) as previously described (Brown et al., (1998) J. Exp. Med. 188:2083-90, van der Merwe, et al., (1994) Biochemistry 33:101489-60) using CM5 research grade chips. […]

[2] = target: T1, hSIRP-Fc (extracellular region of human …); experiment: BIAcore, 37° C; 18.3 µM hCD47-CD4d3+4 over hSIRP-Fc at 6500 RU, exponential decay fitting
Procedure: as §1, §2

[3] = target: T1, hSIRP-Fc (extracellular region of human …); experiment: BIAcore, 37° C; 18.3 µM hCD47-CD4d3+4 over hSIRP-Fc at 3000 RU, exponential decay fitting
Procedure: as §1, §2

[4] = target: T1, hSIRP-Fc (extracellular region of human …); experiment: BIAcore, 37° C; lower bound because of rebinding
Procedure: (§3) (C) Soluble hCD47 (18.3 μM) was injected over immobilised hSIRP-Fc immobilised at high (6500 RU) (filled circles) and low (3000) levels (filled up triangles), and hCTLA-4-Fc (6290 RU) (filled down triangles). Values for koff=1.6 s⁻¹ for hSIRP-Fc high, 2.1 s⁻¹ hSIRP-Fc low and 7.0 s⁻¹ for hCTLA-4-Fc were calculated by exponential decay curve fitting (line) to dissociation data (symbols).
(§4) BIAcore analysis was carried out using a BIAcore™ 2000 biosensor instrument (Biacore AB) as previously described (Brown et al., (1998) J. Exp. Med. 188:2083-90, van der Merwe, et al., (1994) Biochemistry 33:101489-60) using CM5 research grade chips. […] For equilibrium binding increasing and decreasing concentrations of monomeric hCD47-CD4d3+4 were passed over hSIRP-Fc (6500 RU). For kinetic measurements hCD47-CD4d3+4 (18.30 μM) was passed over hSIRP-Fc immobilised at 6500 RU and 3000 RU and a control, CTLA4-Fc (6300 RU). CD47mAb blocking and V-SIRP-CD4d3+4 binding experiments were carried out at 10 and 5 μl/min respectively at 25° C.
(§5) To measure the affinity of the interaction hSIRP-Fc was directly immobilised and monomeric hCD47-CD4d3+4 passed over it. As shown in FIG. 5A hCD47-CD4d3+4 bound specifically to hSIRP-Fc in a dose dependent manner. […] The apparent rate constants were calculated as koff=1.3 s⁻¹ for the higher level of hSIRP-Fc and koff=2.1 s⁻¹ for the lower level (FIG. 5C). […]

[5] = target: T1, hSIRP-Fc (extracellular region of human …); experiment: BIAcore equilibrium binding at 37° C, Scatchard analysis
Procedure: as §3, §4, §5

[6] = target: T1, hSIRP-Fc (extracellular region of human …); experiment: BIAcore, 37° C; apparent rate constant, hSIRP-Fc at the higher level
Procedure: as §3, §4, §5

soluble rat CD4 = target: T2, soluble rat CD4 (rat, UniProt P05540 28-394, limits assumed); experiment: BIAcore, 25° C; soluble rat CD4 injected over V-SIRP-CD4d3+4 flowcell and control flowcell
T2 sequence (looked up): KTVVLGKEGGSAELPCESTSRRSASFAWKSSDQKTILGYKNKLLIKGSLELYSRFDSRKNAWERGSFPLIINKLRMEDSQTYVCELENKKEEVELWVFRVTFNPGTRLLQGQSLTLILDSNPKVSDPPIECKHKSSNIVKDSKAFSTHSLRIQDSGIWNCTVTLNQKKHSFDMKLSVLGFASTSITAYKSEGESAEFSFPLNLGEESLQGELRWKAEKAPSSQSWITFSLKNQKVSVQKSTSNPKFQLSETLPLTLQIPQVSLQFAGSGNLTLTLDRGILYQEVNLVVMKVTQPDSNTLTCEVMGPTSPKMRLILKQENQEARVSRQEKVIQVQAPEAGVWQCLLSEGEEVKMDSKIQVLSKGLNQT
Procedure: FIG. 6. The NH2-terminal V domain of SIRP binds CD47. Soluble rat CD4 and hCD47-CD4d3+4 were injected into flowcells with immobilised V-SIRP-Cd4d3+4 (solid line) or control rat CD4 (dashed line).
as §4
To localise the CD47 binding site on SIRP a construct containing only the NH₂-terminal V-like domain of hSIRP in frame with CD4d3+4 was made. V-SIRP-CD4d3+4 was immobilised in one flowcell via a CD4 mAb (OX68). The free OX68 in this flowcell and all the OX68 in the control flowcell was blocked with soluble rat CD4. Blocking was verified by repeating the injection of soluble rat CD4 (FIG. 6). Soluble hCD47-CD4d3+4 was then injected over both the flowcells. […]

Kd [1]: 8.5 µM | koff [2]: 1.6 s⁻¹ | koff [3]: 2.1 s⁻¹ | koff [4]: ≥ 2.1 s⁻¹ | Kd [5]: 7.6 µM | koff [6]: 1.3 s⁻¹
B1: hCD47-CD4d3+4 (single extracellular IgSF domain of human CD47 fused to rat CD4 domains 3+4) (ligand, human;rat, UniProt Q08722 19-136, looked up)
chain: QLLFNKTKSVEFTFCNDTVVIPCFVTNMEAQNTTEVYVKWKFKGRDIYTFDGALNKSTVPTDFSSAKIEVSQLLKGDASLKMDKSDAVSHTGNYTCEVTELTREGETIIELKYRVVSWSTSITAYKSEGESAEFSFPLNLGEESLQGELRWKAEKAPSSQSWITFSLKNQKVSVQKSTSNPKFQLSETLPLTLQIPQVSLQFAGSGNLTLTLDRGILYQEVNLVVMKVTQPDSNTLTCEVMGPTSPKMRLILKQENQEARVSRQEKVIQVQAPEAGVWQCLLSEGEEVKMDSKIQVLSKGLN
notes: extracellular domain;domain: CD4 domains 3+4; Used as a monomer in solution, or captured via OX68; also called soluble human CD47-CD4d3+4; soluble hCD47; not shown: biotinylation peptide of the CD4d3+4-biotin vector

binding result (soluble rat CD4): no binding
B2: V-SIRP-CD4d3+4 (NH2-terminal V-like domain of hSIRP in frame with rat CD4 domains 3+4) (receptor, human;rat, UniProt P78324 31-148, looked up)
chain: EEELQVIQPDKSVLVAAGETATLRCTATSLIPVGPIQWFRGAGPGRELIYNQKEGHFPRVTTVSDLTKRNNMDFSIRIGNITPADAGTYYCVKFRKGSPDDVEFKSGAGTELSVRAKPSTSITAYKSEGESAEFSFPLNLGEESLQGELRWKAEKAPSSQSWITFSLKNQKVSVQKSTSNPKFQLSETLPLTLQIPQVSLQFAGSGNLTLTLDRGILYQEVNLVVMKVTQPDSNTLTCEVMGPTSPKMRLILKQENQEARVSRQEKVIQVQAPEAGVWQCLLSEGEEVKMDSKIQVLSKGLN
notes: domain: NH2-terminal V-like domain;domain: CD4 domains 3+4; Captured on the chip via OX68; also called single SIRP V domain CD4d3+4 fusion protein

From patent US20030026803A1 (published 2003)
